According to the supplement of paper PMC9170038:

Tested on: K4 kissing-loop RNA reporter
Test: apparent KD of K4 kissing-loop reporter; higher = weaker reporter binding
Conditions: Eterna round: R107
Method: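 RNA-MaP round R107: designed RNA switches with theophylline, tryptophan, arginine or FMN aptamers are transcribed on-chip within common flanks. They are titrated with a labelled K4 kissing-loop RNA reporter in RNA-MaP buffer (100 mM Tris pH 7.5, 80 mM KCl, 4 mM MgCl2), without ligand or with the indicated ligand. Median apparent KD per design.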

[1] = input ligand: theophylline 20 uM
[2] = input ligand: tryptophan 2.4 mM
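Note: bound reporter read as fluorescence of individual clusters on recovered sequencing chips by microscopy, with normalized cluster intensities fitted with a binding model.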

Row | Sequence | apparent KD of K4 kissing-loop reporter (input ligand: FMN 200 uM) | apparent KD of K4 kissing-loop reporter (input ligand: arginine 13.2 mM) | apparent KD of K4 kissing-loop reporter (input ligand: none) | apparent KD of K4 kissing-loop reporter [1] | apparent KD of K4 kissing-loop reporter [2]
1 | GGUAGCAUGGCGGCCGCCACUGUCUAGUGAUGUUAGACCCGACGUGGAUUCAAGACAGUCGGAAACAGGACCGGGCCAUGCUACC | 390 nM | 229 nM | 330 nM | 163 nM | 179 nM
2 | GGUCCGGGCUCGGCCGCCACUCCCUCCUGCCGGAAGGUGGGAUACCGAGUGAUGUUCGGUUGGAGGAGGACCGGGAGCCCGGACC [#2 Exclusion - Tryptophan B Attempt #13 (HarryS)] | 132 nM | 106 nM | 123 nM | 161 nM | 129 nM
3 | GGUGACUACCAGAGGUGAUGUAUAGUAUCGCGAGGACCGGUACGGCCGCCACUCGUGAAGAGAAAGGAGUGAUGUUCCGUAAUGG [Kazoo C8] | 396 nM | 315 nM | 323 nM | 627 nM | 160 nM
4 | GGUGCUGUCUGUGCCGCCCUCCUCGUUCCUCGAGGACCGGUACGGCCGCCACUCGAGUGAUGUUUGGGUAGCGAUCCCUGCUAGC [Bdazzled - #16 Exc. Tryptophan A] | 792 nM | 719 nM | 1060 nM | 801 nM | 696 nM
5 | GGUGUUGUUUGUGCUGUUUUCUUUGUUUCUCGAGGACCGGUACGGCCGCCACUCGAGUGAUGUUUGGGUAGUGAUGUUUGUUAGU [Bdazzled #1 Exc. TA] | 241 nM | 147 nM | 198 nM | 180 nM | 239 nM
6 | GGUUUAUAGGAGGAUACCAGUACGGAUAAAGUACGUUAAUAGUAGAGUGAUGUUCUAAAGUACCCUUGGCAGCUUAGAGUAAGUU [ExTheophylB.K] | 85.8 nM | 147 nM | 105 nM | 117 nM | 63.4 nM
7 | GUAACCUUGCUCGAGUGAUGUUCGAGCGAAGGAGCGCGAGAAAUCGCAGGUAGGUCGCGCUCGAAAUUUGAGCGAACAAUUAUUA [Arg A Ex t2] | 128 nM | 125 nM | 138 nM | 123 nM | 113 nM
8 | GUAGACGUACCUUCAGUGAUGUUGAAGGAUACCAGAUGUUACCACAUCCCUUGGCAGCCUUGGGAUAACAGUGAGUCGGAAUAUG [Uslediti] | 176 nM | 136 nM | 158 nM | 166 nM | 142 nM
9 | GUAGGAUGGUGCGAUACCAGACCUGCAGUGAUGUUGCGCCAUAGUGAGUGAUGUUCACCGGUCCCUUGGCAGCGCGUCCAUAAAG [Same State Theophylline B GF 17] | 1060 nM | 719 nM | 1250 nM | 1160 nM | 882 nM
10 | GUAUAAGUGGGCGAUACCAGCUGUCGGUAGUGAUGUUAUUCAGCAGUCAGGAAGUUCGCUAGCCCUUGGCAGCGCCAGUGGUGAC [theeternabot_exclusion_KL_Theo_B_19] | 383 nM | 324 nM | 416 nM | 351 nM | 341 nM
11 | GUAUCAGUGAUGUUGGUAGGCGAGCGGGAUACCAGCCAAGACUCAGGCCCUUGGCAGCCCACAUAUCCCACGUAGAUAGUAGCUC [Same State - Theophylline A (Freestyle 15)] | 155 nM | 95.6 nM | 149 nM | 139 nM | 133 nM
12 | GUAUCGCUAGGAGGAUAUUUCAAUCUGACUCUUUGAGUUAGUACGGAGUGAUGUUCCGAUUUACGGAAAGAAGGCCUAGUGAUAC [FMN B 11] | 142 nM | 312 nM | 378 nM | 264 nM | 299 nM
13 | GUAUGUGAUGGAAACAUCGCAUACACUGAUACCAGUAUCGAUAGAUACCCUUGGCAGCAGAAAACUGCAAUUGGAGUGAUGUUCC [Ex Theophylline A K4 1] | 213 nM | 175 nM | 229 nM | 216 nM | 201 nM
14 | GUCAUCAGAUCGCAAGAUCUGAUAGCCGAUACCAGCGCGAAGGUGCGCCCUUGGCAGCGGCACCGAGUGAUGUUCGGUCAGACGA [#2 Same State - Theophylline A Attempt #5 (HarryS)] | 526 nM | 392 nM | 514 nM | 330 nM | 427 nM
15 | GUCCCGAGUGAUGUUCGGGUCGUUCGGGAAGGAGCGCCCGCAAGGGCAGGUAGGUCGCCCGGAUCCCUCAGGUAACUGAGGGACC [#2 Same State - Arginine A Attempt #26 (HarryS)] | 632 nM | 428 nM | 491 nM | 467 nM | 465 nM
16 | GUCUCAAAAGAGGCAAGCACUCACGAGGACAAGGAUAUCAUAUCAAUGAGAAGGUGUCCUCGUCCUUAGUGAUGUUAAGGAGUGC [Omei KL FMN A SS E v3] | 297 nM | 298 nM | 357 nM | 196 nM | 330 nM
17 | GUCUCAAAAGAGGCAAGCACUCACGAGGACAAGGAUAUCAUCUCAAUGAGAAGGUGUCCUCGUCCCUAGUGAUGUUAGGGAGUGC [Omei KL FMN A SS E v2] | 211 nM | 334 nM | 368 nM | 478 nM | 468 nM
18 | GUCUCGAGUGAUGUUCGGGUCGAUUGGGAAGGAGCGCCCGGAAGGGCAGGUAGGUCGCCCGGACCGCGCGGGCAACCGCGCGGCC [#2 Same State - Arginine A Attempt #11 (HarryS)] | 186 nM | 108 nM | 147 nM | 141 nM | 163 nM
19 | GUGAAGGAGAUGCAGUGAUGUUGCAGAGACUAGGAUAUCAGGAAACUGAGAAGGAGUCAAUUCCUUCAUUUAGACUGCAACAUAA [KL-SSFMN-A12] | 204 nM | 139 nM | 138 nM | 296 nM | 191 nM
20 | GUGAAUGGCUGAGCAGCCGUGGUACGAGAUACCAGUGAUUUCGAUCACCCUUGGCAGCUCGGCGUGAGUGAUGUUCACGCUACAC [Theo A SS t12a] | 273 nM | 278 nM | 300 nM | 330 nM | 270 nM
21 | GUGUGGAUCCGAAGGAGCGUCCGCAAUCCAGUGAUGUUGGGUGUUGGUUUUAGUAGACGAGGACAGGUAGGUCGCGGAUUUACAA [Same State Arginie B GF 23] | 133 nM | 104 nM | 153 nM | 110 nM | 105 nM

Row | Sequence | apparent KD of K4 kissing-loop reporter (input ligand: FMN 200 uM) | apparent KD of K4 kissing-loop reporter (input ligand: arginine 13.2 mM) | apparent KD of K4 kissing-loop reporter (input ligand: none) | apparent KD of K4 kissing-loop reporter [1] | apparent KD of K4 kissing-loop reporter [2]
22 | GUUACGCAUGGAAGGAGCGCACUCCGAUUGAUCGACACAGUGAUGUUGUGGUUCGUUCGAAUGCAGGUAGGUCGCCAUGUGUAAC [Ex Arginine B K4 17] | 259 nM | 250 nM | 253 nM | 303 nM | 233 nM
23 | GUUACGCAUGGAAGGAGCGCAUGCUCAACUAUAAGCUCAGUGAUGUUGAGCAUUUUUUUUUUGCAGGUAGGUCGCCAUGUGUAAC [Ex Arginine B K4 29] | 320 nM | 255 nM | 386 nM | 438 nM | 217 nM
24 | GUUACGCAUGGAAGGAGCGCUCUCAUGCUUAAUAACACAGUGAUGUUGUGAAUUUGCAUAAAGCAGGUAGGUCGCCAUGUGUAAC [Ex Arginine B K4 8] | 399 nM | 303 nM | 359 nM | 291 nM | 332 nM
25 | GUUACGCAUGGAAGGAGCGCUCUCCGGUUUAUUAACACAGUGAUGUUGUGAUUUUACCGAAAGCAGGUAGGUCGCCAUGUGUAAC [Ex Arginine B K4 12] | 356 nM | 320 nM | 416 nM | 381 nM | 372 nM
26 | GUUUCUUGGAAACAAGGACCGCUAACCGAAGGAGCGAGUGAAAACUCAGGUAGGUCGCGGUAGCGGAGUGAUGUUCCGCGUUUAC [Excluson Arginine A GF 15] | 91.3 nM | 129 nM | 123 nM | 150 nM | 99.8 nM
27 | UAAAACGCUUGAAUAACAAGCGAAAAUUCGCGAGGACCGGUACGGCCGCCACUCGCUAACUGCGAGUGAUGUUCGAUAAUAAAAU [Mat - Mod of OpenEnded 3 - D4] | 149 nM | 70.1 nM | 158 nM | 188 nM | 95.5 nM
28 | UAACUCUUGCAGUGAUGUUGCAAGUAAGCUCAGGAUAUCAGGAAACUGAGAAGGGAGUAUCCUGAGCUUCUGCAAGAGCUCAGAA [KL-SSFMN-A5] | 227 nM | 83.2 nM | 362 nM | 68.6 nM | 97.3 nM
29 | UAAGAAUAAGUAGCAGUGAUGUUGCUACUGCGAGGACCGGUACGGCCGCCACUCGAGUCCUCGAAGCAUCACUGAACGAGGAAUA [whbob_SS_Tryp_A_m12] | 272 nM | 229 nM | 278 nM | 326 nM | 360 nM
30 | UAAGCUCUGACGGCCGCCACUGCACGUGAUCCAGUAGUGGCUAACAUGAGUGAUGUUCAUGUAAGCAGGACCGGGUCAGAGCUAA [KL-XTryp-B13 #analogue] | 103 nM | 87.9 nM | 94.7 nM | 81.7 nM | 120 nM
31 | UAAUAAAUUCCAGCGAUAUCGCUCUUCGAAGGAGCGGGCGAAGGUCCAGGUAGGUCGCGGAGAGUGAUGUUCUUUGCGGCGCUGG [whbob_Ex_Arginine_A_2t135] | 216 nM | 225 nM | 239 nM | 226 nM | 273 nM
32 | UAAUAUAACCGAAGGAGCGCGUGGGCGCAGUGAUGUUGCGCCCGACAUCACUUCAACUAAACGCAGGUAGGUCGCGGUAAUAAUA [Arginine B (Excl) V1] | 134 nM | 83.1 nM | 104 nM | 84.2 nM | 98.4 nM
33 | UAAUUUAUGUCUUUAAUUUAAUAAUCAGAUACCAGUGAUUUAUGACACCCUUGGCAGCUGUAUUGAGUGAUGUUCUUAUACUUAA [JR_Nu_ExcTheophyA_Sub021] | 131 nM | 169 nM | 171 nM | 212 nM | 101 nM
34 | UACAAUUUGGCGGCCGCCACUGACCAUAGCCUUCGAUGGCCAGUGAUGUUGGCCUCUGGCUCUAACAGGACCGGGCCAAAUUAUG [Maeste] | 313 nM | 216 nM | 271 nM | 245 nM | 117 nM
35 | UACAUAUAGUUAUUUCUACAUUUAUUUAGUCAGGAUAUCGAUUAGACGAGAAGGGACAAUAUCAAGUGAUGUUUGAUAAUUCAAA [JR_ExcFMNA_Sub011] | 75.7 nM | 111 nM | 68.4 nM | 100 nM | 53.2 nM
36 | UACGUAGAGCGAGGAUAUCCUUCCCACGUCGAAGUACCGUGCUUGAUGGAGUGAUGUUCGAUCAGAGGAGAAGGUGCGAAACGUC [Flavin Switch Lower Fold Energy] | 725 nM | 618 nM | 724 nM | 622 nM | 524 nM
37 | UACUGGGCGAGUGAUGUUCGCUCACGUGAUACCAGUGCCAUCCAACACCCUUGGCAGCACGCGGGCAGUGAUGUUGUCCUUGUAU [Exclusion Theophylline A GF 5] | 127 nM | 112 nM | 123 nM | 129 nM | 111 nM
38 | UAGACCAGUGAUGUUGGUUCCAAGACGGAUACCAGACUGGCAGAAGUCCCUUGGCAGCUGUAGACCUUGUGAGCUACAAGGUCGG [Theo A SS t2] | 923 nM | 184 nM | 440 nM | 170 nM | 295 nM
39 | UAGCGAUGAAGUGAUACCAGAGAGUGAUGUUCUUUUUUUAUUCAGAAUACUGUCGCCUUGCUCCCUUGGCAGCACGCAGGCGCAG [theeternabot_exclusion_KL_Theo_B_18] | 206 nM | 255 nM | 258 nM | 311 nM | 171 nM
40 | UAGCGUCUGCGAGGAUAUCGGAUUAGAGUGAUGUUCUAAAGACGCCCAGUGAUGUUGGAUGCGAUACGAGAAGGCGCUGGGCGCG [Same State FMN B GF7] | 182 nM | 358 nM | 399 nM | 332 nM | 297 nM
41 | UAGGAGUGAUGUUCCAUAUCUUGAGCCGAAGGAGCGCCUUUAUAGGCAGGUAGGUCGCGGCAGAAGGUACCAGUGAUGUUGGAAA [Same State Arginine A GF6] | 147 nM | 147 nM | 164 nM | 145 nM | 135 nM
42 | UAGUCCUAGUGAUCGUUAUCAAGUGGUGGGCGAGGACCGGUACGGCCGCCACUCGACUAUGCAGUGAUGUUGCAAUCCGGACAAU [Exclusion - Tryptophan A (Freestyle 14)] | 209 nM | 238 nM | 222 nM | 254 nM | 213 nM
